Results published in the nanobody polyreactivity screen of Harvey et al. (2022).

Assay: yeast display, Sf9 membrane polyspecificity reagent, FACS + sequencing; frameworks hold sequencing errors
Summary of the method: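 Sorting gates, low and high (top ~1%), were placed on anti-HA fluorescence to track expression and on streptavidin fluorescence to track reagent binding. A clone's polyreactivity label is taken from the gate it came out of. The reagent was 10% biotinylated, detergent-solubilized Sf9 membrane, applied for 1 hour at 4 °C to galactose-induced yeast display cells.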

Sequence | polyreactivity (PSR sort gate)
QVQLVESGGGLVQAGGSLRLSCAASGIILDHYAMGWYRQAPGKERELVAAISSGTRTNYADSVKGRFTISRDNAKNTVYLQMNSLKPEDTAVYYCAATIYRRYRSKSSITSYWGQGSQVTVSS | high polyreactivity
QVQLVESGGGLVQAGGSLRISCAASGSTFYPNAMGWYRPAPGTERELVAAIRGTGGSTYADSVKGRFTISRDNAKNTVYLQMNSLKPEDTAVYYCAAAGWTYRVEKYSVRLTGYDYWGQGTQVTVSS | high polyreactivity
QVQLVESGGGLVQAGGSLRISCAASGRTFYANAMGWYRQAPGKERELVAAISSNGGSTYYADSVKGRFTISRDNAKNTVYLQMNSLKPEDTAVYYCAVVSRYIAWRKYDYCGQGTQVTVSS | high polyreactivity
QVQLVESGGGLVQAGGSLRLSCAASGRIFGGYTMGWYRQAPGKEREFVAAITSSGGSTYYADSVKGRFTISRDNAKNTVYLQMNSLKPEDTAVYYCAVDDYYYDYDYWGQGTQVTVSS | low polyreactivity
QVQLVESGGGLVQAGGSLRLSCADSGSTFYTNAMGWYRQAPGKERELVAAINRSGGRTYYADSVKGRFTISRDNAKNTVYLQMNSLKPEDPAVYYCAARYPVRFSTDTARDYYWGQGTQVTVSS | low polyreactivity
QVHHVESGGGLVQAGGSLRLSCAASGIIFGYNVMGWYRQEPGKVRELVAAMRYSGGSTYYADSVKGSFTISRDNAKNTVYLQMNSLKPEDTAVYYCATYSAVRELLWGNGYWGQGTQVTVSS | high polyreactivity
QVQLVESGGGLVQAGGSLRLSCAASGRTFRNNAMGWYRQAPGKERELVAAISSRGGSTYYADSVKGRFTISRDNAKNTVYLQMNSLKPEDTAVYYCADDHSRYGDYWGQGTQVTVSS | high polyreactivity
QVQLVESGGGLVQAGGSLRISCAASGFIFQYNTMGWYRQAPGKERELVAVITRTGSTNYADSVKGRFTISRDNAKNTVYLQMNSLKPEDTAVYFCATSFYSRPRKARYYYWGQGTQVTVSS | high polyreactivity
QVQLVESGGGLVQAGGSLRLTCAASVFTWSYAMVWDRHATGKERELVATISDGVSTNYSDSVKGRFTISRDNAKNSVYLQMNSLKPEDTAVYYCAVRVSGPRGYDYEYWGQGTQVTVSS | low polyreactivity
QVQLVESGGGLVQAGGSLRLSCAASGRTFGVYAMGWYRQAPGKERELVARIRYSGGTTRYADSVKGRFTISRDNAKITVYFQMNSLKPEDTAVYYCAARSGYFRSRFDYWGQGTQVTVSS | high polyreactivity
QVQLVESGGGLVQAGGSLRLSCAASGLTFIYYAMGWYRQAPGKERELVAAISVSGGSTYYADSVKGRFTISRDNAKNTVYLQMNSLKPEDTAVYYCAADWFVHIPRYQYSFDYWGQGTQVTVSS | low polyreactivity
QVQLVESGGGLVQARGSLRLSCPASGLIFPAYAMGWYRQAPGKERELVATITWRGGSTYYADSVKGRFTISRDNAKNTVYLQMNSLKPEDTAVYYCATRPRYYYFRYDYWGQGTQVTVSS | high polyreactivity
QVQLVESGGGVVQAGGSLRLSCAASGRTFKKYAMGWYRQAPGKEREFVARITYSAGSTYYADSVKGRFTISRDNAKNSVYLQMNSLKPEDTAVYYCASRFASSGPRWYSRHGEYDYWGQGTQVTVSS | low polyreactivity
QVQLVESGGGLDQAGGSLRLSFAASGSTFVPNVMGWYRQAPGKERELVASITSGGITNYADSVKGRFTISRDNAKNTVYLQMNSLKPEDTAVKGDYWGQGTQVTVSS | low polyreactivity
QVQLVESGGGLVQAGGSLRLSCAASGFIFYSYAMGWYRQAPGKERELVAAITSSGGNTYYADSVKGRFTISRDNAKNTVYLQMNSLKPEDSAVYYCAASSRFWTFYYGIILYDYWGQGTQVTVSS | high polyreactivity
QVQLVESGGGLVQAGGSLRLSCAASGRIIGKYDMGWYRQAPGTERELVAAIRYNGGRTYYADSVKGRFTISRDNAKNTVYLQMNRLKPEDNAVYYCATRTYRVDPEFGYWGQGTEVTVSS | high polyreactivity
QVQLVESGGGLVQAGGSLRLSCAASGRIFVKNTMGLYRQAPGKERELVAAISWYGGSTYYADSVKGRFTISRDNAMNTVYLQMNSLKPEDTAFYYCAAATWQWPWYDYWGQGTKVTVSS | high polyreactivity
QVQLVESGGGFVQAGGSLRLSCAASGSIFVKYAMGWYRQAPGTERELVAAISRSGDSTYYADSVKGRFTLSRDNAKNTVYLQMNSLNPEDTAAYSCAAYSGYGGVSMYYWGQGTQVTVSS | low polyreactivity
QVQLVESGGGLVQAGGSHRLSCAASGRTFVVYAMGWYRQAPGKERELVARIRWRDVSTYYADSVKGRFTISRDNAKTTVYLQMNSLKPEDTAVYYCAARSYTGGGRLYYWGQGTQVTVSS | high polyreactivity
QVQLVESGGGLVQAGGSLRLSCAASGITFVKNAMGWYRQAPGKERELVARIRIGGSTSYADSVKGRFTISRDNAKNTVYLQMNSLKPEDPAVYYCARYAGRLSYRYEFWGQGTQVTLSS | high polyreactivity
QVQLVESGGGLVQAGGSLRLSCAASGSIFVKYAMGWYRQAPGKERELVAAISGSGGSTYYADSVKGRFTISRDNAKNTVYLQMNSLKPEDTAVYYCAAAYHGRHYYWGQGTQVTVSS | high polyreactivity
QVQLVESGGGLVQAGGSLRLSCAASGRTFGYNAMGWNRQAPGKERELVAAINWSGASTYYADSVKGRFTISRDNAKNTVYFQMNSLKPADTAVYYCAADYSYIYGFDYWGQGTQVTVSS | low polyreactivity

Sequence | polyreactivity (PSR sort gate)
QVQLVESGGGLVQAGGSLRLSCAASGRTFYPNAMGWSRQAPGQERAFVARISDSGGSTYYADSVKGRFTISRDNAKNTVYLQMNSLKPEDNAVYYCAADYGDPRVNEYDYWGQGTQVTVSS | low polyreactivity
QVQLVELGGGLVQAGGSLRLSCAASGSIFSRNTMGWYRQAPGKERELVAGISSSGSRTYYADSVKGRFTISRDNAKNTVYLQMNSLKPEDTAVYYCNARYYWKQAADYNYWGQGTQVTVSS | low polyreactivity
QVQLVESGGGLVQAGGILRISCAASGSTFGWYTMGWYRQAPGKERELVAAITSRGTRTSYADSVTGRFTISRDIAKNTVYLQMNSLKTEDTAVYYCAARVFRGLGEYYWGQGTQVTVSS | high polyreactivity
QVQLVESGGGLVQAGGSLRLSCAASGSIFYNYAMGWYRQAPGKERELVAAISSNGGSTYYADSVKGRFTISRDNAKNTVYLQMNSLKPEDTAVYYCAKYLSPGERHSYDYWGQGTQVTVSS | high polyreactivity
QVQLVESGGALVQAGGSLRLSCAASGCIFAPYAMGWYRQAPGKERELVADITEDTGITYYADSVKGRFTISRDNAKNNVYLHMNSLKPVDTAVYYCNAEFYFYDYWGQGTQVTVSS | low polyreactivity
QVQLVESGGGLVQAGGSLRLSCADSGRIFGTSAMGWYRQAPGKERELVATISYSSGRTYYADSVKGRFTISRDNAKNTVYLQMNSLKPEDTAVYYCARRRRSGSRQYYYWGQGTQVTVSS | high polyreactivity
QVQLVESGGGLVQAGGSLRLSCAASGFSFIDNALGWYPQAPGKERELVAAITWSGGSTYYADSVKGRFTISRDNAKNTVYLQMNSLKPEDTAVYYCAATLWFGVAGDSRYDPPEYDYWGQGTQVTVSS | low polyreactivity
QFQIVESGGGLVQAGGSLRLSCDASGSIFTWYAMGWYRQAPGKERELVAAITRGGSTYADSVKGRFTISRDNAKNSVYLQMNSLKPEDTAVYYCNAVYGVYDFNYWGQGTQVTVSP | low polyreactivity
QVQLVESGGGLVQAGGSLRVSCAASGRIFGYNAMGWSRQAPVKERELDAAIRGGGSTYYADSVKGRFTISRDNAKHSVYLQMYSLKPEDTAVYYCAATSYTYVLSPYRGDYWGQGTQVTVSS | high polyreactivity
QVQLVESGGGLVQAGGSLRLSCAASGFTFGPYAMGWYRQAPGKERELVAGITWSGASTYYADSVKGRFTISRDNAKNTVYLQMNSLKPEDTAVYYCARYYRLGSRYDYWGQGTQVTVSS | low polyreactivity
QVQLVESGGGLVQAGGSLRLSCAASGITFSANAMGWYRQAPGKERELVATITWSGGSTYYADSVKGRFTISRDNAKNTVYLQMNSLKPEDTAVYYCNARSYDEYPYYSYNYWGQGTQVTVSS | low polyreactivity
QVQLVESGGVLVQAGGSLRLSCAASGLIFATYAMGWSRQAPGKERELVAAISSNGDRTYYADSVKGGFTISRDNAKNTVYLQMNCLKPEDTAVYYCARLYLVQSRYPEMDFWGQGTQVTVSS | high polyreactivity
QVQLVESGGGLVQAGGSLRLTCAASGYTFLHYAMGWYRQPPGKERELVAAITHSGTRTYYADSVKGRFTISRDNAKNTVYLQMNSLKPEDTAVHYCAARGYGKYDYWGQGTQVTVSS | high polyreactivity
QDQLVESGGGLVQAGASRRLRCAASGSIFGRNTMGWYRQAPGKESELVAAISSGGRTYYADSVKGRFTISRDNAKYTVFLQMNSLKPEDTAVYYCAAALRRRRADFDYWGQGTQVTVSS | high polyreactivity
QVQLVESGGGLEQAGGRLRLSCAASGFTFDFYAMGWYRQAPGKERQLVAAISKNDGTTYYADSVKGRFTISRDNAKNTVYLQMNSLKPEDTAVYYCAAESGYPVYTYVSSGDYWGQGTQVTVSS | low polyreactivity
QVQLVESGGGIVQAGGSLRLSCAASGRTYYYYAMGWYRQAPGKETELVASISWSGGSTYYADSVKGRFTISRDNAKNTVYLQMNSLKPEDTAVYYCNAQYHTYRWLYAVYLSGDYWGQGTQVTVSS | low polyreactivity
QVQLVESGGGLVQAGGSLRLSCAASGNTFTRNTMGWYRQAPGKERELVASISLSGASTYYADSVKGRFTISRDNAKNTVYLQMNSLKPEDTAVYYCAKRRSYGYYRAYNYWGQGTQVTVSS | high polyreactivity
QVQLVESGGGIVQAGGSLRLSCAASGRTFAGNAMGWYRQAPGKERELVAAISQGGGSTYYADSVKGRFTISRDNAKNTVYLQMNSLKPEDTAVYYCAAEIPRRWASFATLWYDYWGQGTQVTVSS | low polyreactivity
QVQLVESGGGLVQAGGSLRLSCAASGRIFYSYAMGWYRQAPGKERELVAAITRTGGNTYYADSVKGRFTISRDNAKNTVYLQMNSLKPEDTAVYYCNAEYWKEHYPEIYYSWGQGTQVTVSS | low polyreactivity
QVQLVESGGGLVQAGGSLRLSCAASGSNFTSYAMGWYRQAPGKERELVAAISKSGGSTYYADSVKGRFTISRDNAKNTVYLQMNSLKPEDTAVFYCAARYNVRSYTTSRFDYWGQGTQVTVSS | low polyreactivity
QVQLVESGGGLVQAGGSLRLSCAASGFTFESYAMGWYRQAPGKERELVAAISWNGGSTYYADSVKGRFTISRDNAKNTVYLQMNSLKPADTAVYYCAARGRAPRFRRIGYDYWGQGTQVTVSS | high polyreactivity
